Results on 131 substances are retold here after the supplement of paper PMC12042874.

± gives the uncertainty stated by the source.

The nature of the data set: amyloid nucleation score (Sup35N fusion, yeast selection) (log enrichment); library NNK3; higher = more nucleation; inactive = no reads after selection. The method in brief: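 Nucleation score: DiMSum log enrichment of output over input reads, centred on the mode score of non-aggregating sequences. Only sequences with at least 100 input reads were kept. Reads came from Illumina sequencing of plasmid inserts before and after 7 days of growth at 30°C without adenine and uracil, in psi-negative yeast expressing Sup35N fused to peptides of 20 random codons after 24 hours of induction with 100 μM copper sulfate.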
On to RHMFVSSSKRWKFSSNTYRT, for which the amyloid nucleation score entry is “inactive”.

RHSILVSYFHWWFRDWKPFW: the amyloid nucleation score entry was “inactive”.

For the substance RICSQMLFFRYESRHFWSFV, the amyloid nucleation score entry is “inactive”.

As to RIGAYYPMFIFAVLVGSALG, the amyloid nucleation score result is “inactive”.

Take RIHDNVPSIVWFWEPPHPRH: the amyloid nucleation score entry is “inactive”.

Take RIMGSPQSDS: the amyloid nucleation score entry was “inactive”.

RINMELLWIFGGSTWFINRG came in with an amyloid nucleation score of 1.93 ± 0.084.

As for RIPTLIFRLILIMFHDFDFQ, the amyloid nucleation score result was “inactive”.

In the case of RIRCVMFGGRKSRRKLDSVV, the amyloid nucleation score entry is “inactive”.

RIRKRQCWSFVLLLYCGCVT: the amyloid nucleation score result is “inactive”.

On to RISINGFNNLNYLLS, for which the amyloid nucleation score worked out at 1.39 ± 0.1.

Turning to RITKRRHSVIPCP, the amyloid nucleation score result is “inactive”.

On to RIVNS, for which the amyloid nucleation score result is “inactive”.

For RKHLRPQSMRVDSGETLRVL, the amyloid nucleation score entry is “inactive”.

Consider RKLGLEYGITMSCASLLALR, for which the amyloid nucleation score result was “inactive”.

For the substance RKLKHLS, the amyloid nucleation score entry is “inactive”.

In the case of RKLLCWTRDGRIWMRVEGTA, the amyloid nucleation score result was “inactive”.

As to RKLTCTSGLA, the amyloid nucleation score entry is “inactive”.

Regarding RKMDLVDKSMSTIGYLAHHG, the amyloid nucleation score was -0.63 ± 0.82.

Regarding RKMMCKWLCNIKGYIIVV, the amyloid nucleation score entry was “inactive”.

For the substance RKNVRMMA, the amyloid nucleation score result is “inactive”.

On to RKSHD, for which the amyloid nucleation score entry was “inactive”.

As to RKYSVG, the amyloid nucleation score entry is “inactive”.

In the case of RLCSFTRYLNGATSANNVKL, the amyloid nucleation score entry is “inactive”.

For RLCSVGLAVYYMACSEYKMR, the amyloid nucleation score was determined as 0.103 ± 0.29.

Turning to RLDGCM, the amyloid nucleation score result was “inactive”.

The substance RLFKNGSMGRSYGSVYRPV registered an amyloid nucleation score of -0.111 ± 0.81.

As to RLGMWVFWCRL, the amyloid nucleation score entry was “inactive”.

Regarding RLHIVETLSYLNACWPDFSG, the amyloid nucleation score entry was “inactive”.

On to RLHVRCNCDLSDGVPRAVCE, for which the amyloid nucleation score worked out at 0.599 ± 0.23.

For RLLSKVSNFREYTSSSVPDV, the amyloid nucleation score entry is “inactive”.

Turning to RLRCLYTSEISVGIGNNWVS, the amyloid nucleation score entry is “inactive”.

Take RLSQCRLLVFDGTQVFMCCV: the amyloid nucleation score stood at 2.01 ± 0.077.

With RLTGCRWDSPVTKVNIRWVY, the amyloid nucleation score entry is “inactive”.

As to RLTTLPIRSPFTLGYTFARK, the amyloid nucleation score entry is “inactive”.

On to RLVAFGRRWDESSKVECMWS, for which the amyloid nucleation score entry is “inactive”.

As for RLVAVVRCYVLCGKIWGKST, the amyloid nucleation score is -0.484 ± 0.89.

For the substance RLVSLSPNLLMYSNVLDYLK, the amyloid nucleation score entry is “inactive”.

Regarding RLWICVSQILVILVDALILG, the amyloid nucleation score result is “inactive”.

With RLWLYR, the amyloid nucleation score entry was “inactive”.

As for RLWYGTYWFT, the amyloid nucleation score result was “inactive”.

As for RLYDIVCYSTVVL, the amyloid nucleation score is 1.99 ± 0.074.

In the case of RLYKKGRGPFHLTPAPRD, the amyloid nucleation score result is “inactive”.

For the substance RMFLHLTRNKCVRVKKASQE, the amyloid nucleation score entry is “inactive”.

On to RMGIYCGDRFQ, for which the amyloid nucleation score entry was “inactive”.

In the case of RMNQIRLPGRCTY, the amyloid nucleation score entry was “inactive”.

Turning to RNANSNWSRPVLNAWSLNEV, the amyloid nucleation score result is “inactive”.

Turning to RNGRKYSIWLVGVSH, the amyloid nucleation score result was “inactive”.

With RNMLVAPDSCMASRWYGVHL, the amyloid nucleation score entry is “inactive”.

With RNSKWWLYLKSARSCYLGWW, the amyloid nucleation score result is “inactive”.

Consider RNSRTVRRDLQINCR, for which the amyloid nucleation score entry was “inactive”.

For RNVCMSEVGSVDKSSLLHGN, the amyloid nucleation score entry was “inactive”.

For RNWLYLFVRRLISWLNKWGK, the amyloid nucleation score result is “inactive”.

As to RNYDFSKGITVSWRLLHA, the amyloid nucleation score result is “inactive”.

RPLTVKKY gave an amyloid nucleation score of -0.538 ± 1.4.

For the substance RPMRACRGMEVRGFSSEVSA, the amyloid nucleation score result is “inactive”.

RPRFWICMSYMEQSSDNRRT: the amyloid nucleation score is 1.37 ± 0.084.

Regarding RPRRTCWM, the amyloid nucleation score result was “inactive”.

RPVKCSLYMTGQLQRLDGVN had an amyloid nucleation score of 0.915 ± 0.14.

Take RPWHPLLTSDVVNCWLKIRV: the amyloid nucleation score result was “inactive”.

In the case of RQCMKRLWDSCYKKAWIKYV, the amyloid nucleation score entry was “inactive”.

Turning to RQEFIGWFSTSALSAQFLS, the amyloid nucleation score entry is “inactive”.

RQIRPMRTLSGTLGAGDRCH: the amyloid nucleation score result was “inactive”.

In turn, RQIVKPASQVILCRCLCTGA showed an amyloid nucleation score of 1.04 ± 0.1.

Consider RQQRLRRKPLFWDNQAKANY, for which the amyloid nucleation score came out at 0.211 ± 0.24.

RQVSPTVVCSIILSLPFDPC had an amyloid nucleation score of 0.396 ± 0.22.

As for RRAAEKFFNEPTWERHLVSG, the amyloid nucleation score entry is “inactive”.

In the case of RRELWRLRTVVCTMNLLYYA, the amyloid nucleation score result is “inactive”.

In the case of RRFIIPRAVAFTSL, the amyloid nucleation score result is “inactive”.

On to RRGRPVLCRLHPGRWLRSRR, for which the amyloid nucleation score was -0.401 ± 1.8.

The substance RRGYLVYFGSTFYYSSNSFW yielded an amyloid nucleation score of 0.468 ± 0.19.

In the case of RRLCKYYLQVKSPCIGHDCQ, the amyloid nucleation score result was “inactive”.

Take RRLTGFMQVVRKNWVLGELA: the amyloid nucleation score was found to be 1.04 ± 0.21.

Consider RRMLTRTFRG, for which the amyloid nucleation score result is “inactive”.

On to RRPVYIIASNLDYMQTSCIT, for which the amyloid nucleation score result is “inactive”.

The substance RRSISGKVLFTRIQSYLLKF showed an amyloid nucleation score of -0.759 ± 1.

RRSKISLS: the amyloid nucleation score result was “inactive”.

For the substance RRSNSHYM, the amyloid nucleation score entry is “inactive”.

RRSRCVRSVYRFRMSRARPP: the amyloid nucleation score result is “inactive”.

Regarding RRTMFPAMIIS, the amyloid nucleation score entry is “inactive”.

On to RSCLCEWWDVGSSVSASTLL, for which the amyloid nucleation score entry is “inactive”.

In the case of RSDCNGSSKYLISDHFP, the amyloid nucleation score entry is “inactive”.

On to RSDGRCEYKSWCNVQLKVE, for which the amyloid nucleation score result is “inactive”.

As for RSDMTAHDTNDAVQLEPSVE, the amyloid nucleation score entry was “inactive”.

RSEPIKVVWVSISQPMDFFC gave an amyloid nucleation score of 2.13 ± 0.077.

As for RSGSMWCLSMLVVHLDELTD, the amyloid nucleation score result was “inactive”.

In the case of RSILDM, the amyloid nucleation score result is “inactive”.

With RSKLYEISRIRKMGHPHTAE, the amyloid nucleation score result is “inactive”.

As for RSLAEGFYGAVPEGSVRFRN, the amyloid nucleation score result is “inactive”.

With RSMQFGVIYAYYHRMAG, the amyloid nucleation score result is “inactive”.

In the case of RSMSTGNH, the amyloid nucleation score result was “inactive”.

Substance RSRKLCNPIMILLQVFGNYG displayed an amyloid nucleation score of 1.43 ± 0.07.

With RSSESNIICTTLRYLSVVVY, the amyloid nucleation score entry was “inactive”.

For RSSPEDPLTSFLGYTGMTAS, the amyloid nucleation score entry was “inactive”.

With RSTFYIISCRTVDWESVSTR, the amyloid nucleation score entry was “inactive”.

For RSTWEQ, the amyloid nucleation score result was “inactive”.

RSVKVYLRCSLSNCVILLGT had an amyloid nucleation score of 2.58 ± 0.049.

For RSVVEWGS, the amyloid nucleation score result was “inactive”.

For the substance RSVVMYALSIFYVRFTANQN, the amyloid nucleation score was determined as 0.755 ± 0.23.

In turn, RSWLLSSEFVVVIFSNTEGM displayed an amyloid nucleation score of 1.24 ± 0.16.

In turn, RSYARRSTGILAR yielded an amyloid nucleation score of -0.112 ± 0.75.

As for RSYFGMARGAHFSAHFLLFL, the amyloid nucleation score result is “inactive”.

RTFPNTWHAMIFGCVNKPNC: the amyloid nucleation score result is “inactive”.

With RTGSHEMLIICFCVTSVL, the amyloid nucleation score result was “inactive”.

Turning to RTHGCCSVCNTEFADGVVLS, the amyloid nucleation score entry is “inactive”.

Regarding RTIFFFLDSMLIYSRAVCRL, the amyloid nucleation score entry is “inactive”.

In the case of RTLAIRYSSNPLTIRLLQSL, the amyloid nucleation score result was “inactive”.

For RTMSSLLFQFDSFLKLIKSE, the amyloid nucleation score result was “inactive”.

RTRCAPLDMVEL: the amyloid nucleation score entry was “inactive”.

As to RTSYLVLMKCYSALDYGVIA, the amyloid nucleation score entry is “inactive”.

With RTVIGLPASMLLSCDHISFV, the amyloid nucleation score entry is “inactive”.

Turning to RVARMFGEY, the amyloid nucleation score entry was “inactive”.

On to RVCDMVNTASWAIICSCLHL, for which the amyloid nucleation score stood at 2.05 ± 0.068.

With RVCRVAPLPAVKGLGVSQNS, the amyloid nucleation score result was “inactive”.

As to RVDRLALLCSTSGINSDFGR, the amyloid nucleation score entry was “inactive”.

RVDSYVSMTYHIRWFFVRTE: the amyloid nucleation score entry is “inactive”.

In the case of RVEVSSTGV, the amyloid nucleation score entry is “inactive”.

Regarding RVFEVEKLVEIGGTMLHESN, the amyloid nucleation score result is “inactive”.

Regarding RVKQQLNLP, the amyloid nucleation score entry is “inactive”.

Turning to RVLATFCG, the amyloid nucleation score result is “inactive”.

As for RVLNS, the amyloid nucleation score result is “inactive”.

As for RVLRLLRVDAGHNLI, the amyloid nucleation score was -0.029 ± 0.81.

Take RVRLIH: the amyloid nucleation score result is “inactive”.

With RVRYGGNKMHNSRKLACGQG, the amyloid nucleation score was found to be 0.743 ± 0.18.

The substance RVSFTSITWVSSLM returned an amyloid nucleation score of 0.003 ± 0.98.

As for RVTGTCGFRRDGFESWRNTR, the amyloid nucleation score result is “inactive”.

Consider RVVCAD, for which the amyloid nucleation score result was “inactive”.

Take RWAKSEAVLLVFGEFSLVGW: the amyloid nucleation score result is “inactive”.

Turning to RWFDTFLCLSR, the amyloid nucleation score entry is “inactive”.

Consider RWFRLSWLEISKYA, for which the amyloid nucleation score entry is “inactive”.

Consider RWLASNVDPKITSEIQPGAS, for which the amyloid nucleation score entry is “inactive”.
